Tests used:
[1] = target: T1, human OX40, membrane-bound (human, UniProt P43489 29-277); test: FACS on activated primary human CD4+/CD25+ T cells, purified recombinant antibody, APC GMFI
T1 sequence: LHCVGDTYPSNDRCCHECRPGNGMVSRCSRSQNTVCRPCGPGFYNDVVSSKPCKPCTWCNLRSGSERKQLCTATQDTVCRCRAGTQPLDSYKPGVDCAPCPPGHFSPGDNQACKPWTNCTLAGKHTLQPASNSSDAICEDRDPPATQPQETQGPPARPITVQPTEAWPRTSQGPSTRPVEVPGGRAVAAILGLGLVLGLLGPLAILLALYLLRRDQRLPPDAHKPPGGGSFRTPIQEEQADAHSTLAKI
Method: Cells were activated for several days before the binding assay in order to induce OX40 expression. Briefly, PBMCs were cultured for three or four days with magnetic beads coated with anti-human CD3 plus anti-human CD28, in the presence of recombinant human IL-2. On the day of the assay, the beads were removed and the cells stained with a titration of each anti-OX40 antibody. Bound antibodies were detected with a fluorescently conjugated anti-human IgG polyclonal secondary antibody, and the cells were co-stained for CD4 and CD25 to detect activated CD4 T cells. The fluorescence intensity of the staining was measured using a FACSCanto II flow cytometer (Becton Dickinson). The geometric mean fluorescence intensity (GMFI) or median fluorescence intensity (MedFI) of anti-OX40 antibody staining was calculated for the CD4+CD25+ population (FACSDiva software). EC₅₀s for antibody binding were calculated using GraphPad Prism software.

[2] = target: T2, cynomolgus OX40, membrane-bound (cynomolgus monkey, UniProt P43489 29-277 (human entry)); test: FACS on activated primary cynomolgus CD4+/CD25+ T cells, purified recombinant antibody, APC GMFI
T2 construct: also called cynoOX40-CHO
T2 chain: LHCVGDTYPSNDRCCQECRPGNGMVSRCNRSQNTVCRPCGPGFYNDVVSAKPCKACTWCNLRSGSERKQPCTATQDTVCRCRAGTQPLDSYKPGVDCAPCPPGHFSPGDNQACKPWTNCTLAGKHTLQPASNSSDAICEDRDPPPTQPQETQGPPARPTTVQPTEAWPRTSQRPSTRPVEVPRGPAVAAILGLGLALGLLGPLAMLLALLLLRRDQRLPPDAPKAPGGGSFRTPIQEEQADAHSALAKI
Method: Briefly, cells were activated for several days before the binding assay in order to induce OX40 expression. Total leukocytes were isolated from cynomolgus macaque peripheral blood by lysis of red blood cells using an ammonium chloride buffer. The leukocytes were then cultured for four to five days with in flasks pre-coated with anti-human CD3 plus anti-human CD28 antibodies that cross-react with cynomolgus macaque, in the presence of recombinant human IL-2, in order to expand and activate T cells. On the day of the assay, the cells were harvested and stained with a titration of each anti-OX40 antibody. Bound antibodies were detected with a fluorescently conjugated anti-human IgG polyclonal secondary antibody, and the cells were co-stained for CD4 and CD25 to detect activated CD4 T cells. The fluorescence intensity of the staining was measured using a FACSCanto II flow cytometer (Becton Dickinson). The geometric mean fluorescence intensity (GMFI) or median fluorescence intensity (MedFI) of anti-OX40 antibody staining was calculated for the CD4+CD25+ population (FACSDiva software). Dose-response curves were generated and EC50s for antibody binding were calculated using GraphPad Prism software.
The same experiment was performed with anti-OX40 antibodies with variable region substitutions.

B1: OX40.6 (antibody, human IgG1, kappa, V domains shown)
VH: EVQLVQSGGGLVQPGGSLRLSCAGSGFTFSNYAMYWVRQAPGKGLEWVSAIGIGGDTFYTDSVKGRFTISRDNAKNSLSLQMNSLRAEDTAVYYCARMGTGYFFDYWGQGTLVTVSS
VL: EIVLTQSPATLSLSPGERATLSCRASQSVSSYLAWYQQKPGQAPRLLIYDASNRATGIPARFSGSGSGTDFTLTISSLEPEDFAVYYCQQRSNWPLTFGPGTKVDIKR
notes: g1f; 23H3 with VH-H13Q/M87T
**Q.** How did the “EC50 (read off the curve)” value [1] turn out when B1 was run?
**A.** Its value is ~0.1 nM.

**Q.** And the “EC50 (read off the curve)” value [2]?
**A.** Its value is ~0.1 nM.
